This note sets out measurements from CN117886936A.

This assay addresses hCD47-ECD-his (human) (UniProt Q08722). Description: ELISA on coated human CD47-his after pre-incubating the antibody with human red blood cells (1E8/well). On the technique in general: An ELISA detects its analyte on a solid surface through an enzyme-linked reagent.
UniProt Q08722, sequence (Q08722 other isoform, or with tags, fused parts or gaps): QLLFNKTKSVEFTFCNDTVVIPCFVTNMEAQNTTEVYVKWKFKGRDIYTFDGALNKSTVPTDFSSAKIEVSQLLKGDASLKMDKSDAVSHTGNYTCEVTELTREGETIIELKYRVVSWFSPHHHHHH

In the case of ALX148, the EC50 (commonly the concentration that produces a half-maximal response) came out at 3.15 µg/mL.
